In patent US20120315267A1 (GlaxoSmithKline, published 2012):
Where a chain is given by its changes, count along the chain named.

T1: human GCP-2 (human, UniProt P80162 38-114, limits assumed)
T1 sequence (looked up): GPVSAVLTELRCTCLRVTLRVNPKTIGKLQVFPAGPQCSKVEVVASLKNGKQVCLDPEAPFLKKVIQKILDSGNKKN

T2: human Gro-gamma (human, UniProt P19876 35-107)
T2 sequence (looked up): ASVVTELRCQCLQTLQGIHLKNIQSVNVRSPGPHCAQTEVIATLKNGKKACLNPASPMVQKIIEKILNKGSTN

T3: human NAP2 (human, UniProt P02775 59-128)
T3 sequence (looked up): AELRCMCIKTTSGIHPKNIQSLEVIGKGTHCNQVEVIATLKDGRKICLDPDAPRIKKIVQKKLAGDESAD

T4: human ENA-78 (human, UniProt P42830 37-114, limits assumed)
T4 sequence (looked up): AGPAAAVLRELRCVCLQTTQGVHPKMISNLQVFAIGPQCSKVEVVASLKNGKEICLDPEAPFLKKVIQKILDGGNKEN

T5: human IL-8 (human, UniProt P10145 28-99, limits assumed)
T5 sequence (looked up): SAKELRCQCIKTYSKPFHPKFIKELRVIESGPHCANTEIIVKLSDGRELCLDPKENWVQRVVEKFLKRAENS

T6: human Gro-beta (human, UniProt P19875 35-107)
T6 sequence (looked up): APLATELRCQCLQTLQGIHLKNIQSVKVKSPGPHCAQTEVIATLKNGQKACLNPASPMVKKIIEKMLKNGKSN

T7: human Gro-alpha (human, UniProt P09341 35-107)
T7 sequence (looked up): T6 sequence (looked up) with P2S, L3V, L20P, K27N, Q48R, M58I, K68N, N69S, G70D

B1: 2X352.3 (antibody, IgG1, V domains shown)
VH: QIQLVQSGPELKKPGETVKISCKASGYTLTYYGIHWVTQTPGKGLNWMGWINTNTGEPTYVEEFKGRFAFSLETSASTAYLQITDLKNEDTATYFCAKATYDGYSDYWGQGTTLTVSS
VL: DIQMTQSPASLSVSVGESVTITCRASENIYSNLAWYQQKQGKSPQLLVYDATNLAHGVPSRFSGSGSGTQFSLRINSLQSEDFGSYYCQHFWGTPLTFGAGTRLELK
B2: 5D2.2D10 (antibody, V domains shown)
VH: QIQLVQSGPELKKPGETVKISCKASGYIFTAYGMSWVKQAPGKGLKWMGWINTYSGVPTYADHFKGRFDFSLETSASTAYLQINNLKNEDTATYFCARPTVVDPWYFDVWGTGTTVTVSS
VL: DIQMTQSPASLSVSVGETVTITCRASENIYSNLAWYQQKQGKSPQLLVYAATNLGDGVPSRFSGSGSGTQYSLKINSLQSEDFGSYYCQHFWTTPWTFGGGTKLEIK
B3: 7A12.1F10 (antibody, IgG1, V domains shown)
VH: QVQLQQSGAELVKPGASVKLSCKASGYIFTSNDINWVRQRPEQGLEWIGWIFPGDNSTKFNEKFRDKATLTTDKSSSTAYMQLSGLTSEDSAVYFCATFYGSTYGYYFDYWGQGTTLTVSS
VL: DIVMTQSHKFMSTSVGDRVSITCKASQDVGTAVAWYQQKPGQSPKLLIYWTDTRHTGVPDRFTGSGSGTDFTLTISNVESEDCVDYFCHQYNNYPLTFGAGTKLELK
B4: 1L132.23 (antibody, IgG1, V domains shown)
VH: QVQLQQPGAELVKPGASVKVSCKASGYTFTNYWMHWVRQRPGQGLEWIGRIHPSDNDTNYNQKFKDKATLTVDKSSNTAYMQLSSLTSEDSAVYYCAIGVYDGFIGLWGQGTSVTVSS
VL: DIQMTQSPASQSASLGESVTITCLASQTIGTWLAWYQQKPGKSPQLLIYAATRLADGVPSRFSGSGSGTKFSFKISSLQAEDFVSYYCQQLSSTPWTFGGGTKLEIK
B5: 2B12.1E1 (antibody, IgG2c, V domains shown)
VH: EVQLQQSGPELVKPGASVKISCKASGYTFTDYYMNWVKQSHGKSLEWIGDINPNNGNTNYNQKFKGKATLTVDKSSSTAYMEFRSLTSEDSAVYYCAGLGRIFDYWGQGTTLTVSS
VL: ENVLTQSPAIMSASPGEKVTMTCRASSSVSSTFLHWYQQKSGASPKLWIYSTSDLASGVPARFSGSGSGTSYSLTISSVEAEDAATYYCQQYSGYPWTFGGGTKLEIK
B6: 1L351.17 (antibody, IgG2b, V domains shown)
VH: QAYLQQSGAELVRPGASVKMSCKASGYTFTSYNMHWVKQTPRQGLEWIGAIYPGNGDTSYNQKFKGKATLTVDKSSSTAYMQLSSLTSEDSAVYFCARDLYYFDYWGQGTTLTVSS
VL: B5 VL with S14F, F33Y, Y92F
B7: 17D1.1D2 (antibody, IgG2c, V domains shown)
VH: B5 VH with V37L, K38R, N57G, G66N, F83L, Y94F
VL: B5 VL with S14F, F33Y, Y92F
B8: 9D12.1H4 (antibody, IgG1, V domains shown)
VH: EVQLQQSGPELVKPGASVRMSCKASGNTVIDYNIHWVKQSQGKSLEWIGYINPNSGGTGYNEKFKDKATLTINKSSSTAHMDLRSLTSEDSAVYYCTRFDFWGQGTTLTVSS
VL: DVLMTQTPLSLPVSLGDQASISCRSTQSIVPVNGNTHLEWYLHKPGQSPKLLIYKVSNRFSGVPDRFSGSGSGTDFTLKISRVEAEDLGVYYCFQASHVPWTFGGGTKLEIK
B9: 2X810.3 (antibody, IgG1, V domains shown)
VH: QIQLQQSGPEVVKPGASVKISCKASGYIFTDNYIDWVQQRPGQGLEWIGWIFPGSGNTKYNEKFKGKATLTVDTFSSTAYMQLSSLTSEDTAVYFCAREIDYDYDGFFDVWGAGTTVTVSS
VL: DIVMTPSHTFMSTSVGDRVIITSKASQDVGSAVAWYQQKPGQSPTLLIYWASTRHTGVPDRFTGSGSGTDFTLTISNLQSEDLADYFCQQYSTYPLTFGAGTKLELK
B10: 1A1.4C6 (antibody, IgG1, V domains shown)
VH: EVQLQQSGPELVKPGASVKISCKASGYTFIDYYMNWVKQSQGKSLEWIGDVNPDDGDTTYNQQFKDKATLTVDKSSSTAYMELRSLTSEDSAVYYCARDDRTSGYFDVWGTGTTVTVSS
VL: DIQMTQSTSSLSASLGDRVTISCRASQDIRNYLNWFQQKPDGTVKLLIYYTSIVHSRVPSRFSGSGSGTDYSLTINNLDQEDIATYFCQQANTLPWTFGGGTKLETK
B11: 2X907.15 (antibody, IgG1, V domains shown)
VH: EVKLVESGGGLVKPGGSLKLSCAASGFTFSDYYMYWVRQSPEKRLEWVATVSDVGSYTYYSGSVRGRFTISRDNAKNNLYLQMSSLQSEDTAIYYCSRDRTLDYWGQGTSVIVTS
VL: QIVLTQSPAIMSASPGEKVTITCNASSSVSYMHWFQQKPGTSPKLWIYSTSNLASGVPARFSGSGSGTSYSLTISRMEAEDAATYYCHQRSSFPPTFGGGTKLEIK

What was measured:
Assay in all cases: cell-based or functional assay
human GCP-2 = target: T1, human GCP-2
human Gro-gamma = target: T2, human Gro-gamma
human NAP2 = target: T3, human NAP2
human ENA-78 = target: T4, human ENA-78
human IL-8 = target: T5, human IL-8
human Gro-beta = target: T6, human Gro-beta
human Gro-alpha = target: T7, human Gro-alpha

Binder | FLIPR IC50 (human GCP-2) | FLIPR IC50 (human Gro-gamma) | FLIPR IC50 (human NAP2) | FLIPR IC50 (human ENA-78) | FLIPR IC50 (human IL-8) | FLIPR IC50 (human Gro-beta) | FLIPR IC50 (human Gro-alpha)
B1 | > 67 µg/mL | 7.43 µg/mL | > 67 µg/mL | 4.99 µg/mL | > 67 µg/mL | 1.12 µg/mL | 2.06 µg/mL
B2 | > 200 µg/mL | > 200 µg/mL | > 200 µg/mL | 4.7 µg/mL | > 200 µg/mL | 77.4 µg/mL | > 200 µg/mL
B3 | 124 µg/mL | > 200 µg/mL | > 200 µg/mL | 2.4 µg/mL | > 200 µg/mL | > 200 µg/mL | 9.9 µg/mL
B4 | > 67 µg/mL | > 67 µg/mL | > 67 µg/mL | > 67 µg/mL | > 67 µg/mL | 0.69 µg/mL | > 67 µg/mL
B5 | 40.9 µg/mL | > 67 µg/mL | > 67 µg/mL | > 67 µg/mL | 1.6 µg/mL | > 65.5 µg/mL | > 67 µg/mL
B6 | > 67 µg/mL | 3.17 µg/mL | > 67 µg/mL | > 67 µg/mL | > 67 µg/mL | 1.02 µg/mL | 1.92 µg/mL
B7 | > 200 µg/mL | 144 µg/mL | > 200 µg/mL | > 200 µg/mL | 2.5 µg/mL | 81.6 µg/mL | > 146 µg/mL
B8 | 6.6 µg/mL | > 67 µg/mL | > 67 µg/mL | 14.4 µg/mL | 3.4 µg/mL | > 67 µg/mL | > 67 µg/mL
B9 | 24.6 µg/mL | > 67 µg/mL | > 67 µg/mL | 14.6 µg/mL | > 67 µg/mL | > 67 µg/mL | > 67 µg/mL
B10 | 11.2 µg/mL | 19.2 µg/mL | 123 µg/mL | 12.3 µg/mL | > 200 µg/mL | > 168 µg/mL | 2.4 µg/mL
B11 | > 67 µg/mL | > 67 µg/mL | > 67 µg/mL | 2.6 µg/mL | > 67 µg/mL | > 67 µg/mL | > 67 µg/mL
